In one assay the target is T1, rat AMHR-II-ECD-Fc (rat, UniProt Q62893 18-144).
T1 construct: extracellular domain; Bought reagent (R&D Systems); also called rat AMHR-II receptor; not shown: Fc part of the bought fusion protein (R&D Systems)
T1 sequence (looked up): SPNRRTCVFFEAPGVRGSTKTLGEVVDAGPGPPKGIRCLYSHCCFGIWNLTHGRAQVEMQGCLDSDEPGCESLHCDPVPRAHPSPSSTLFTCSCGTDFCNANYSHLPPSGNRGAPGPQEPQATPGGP
Put plainly: ELISA, 100 ng per well coated Fc fusion, serially diluted 4A3. The procedure:
(§1) The binding capacity of the anti-AMHR-II 4A3 antibody was evaluated by ELISA. ELISA plates (96 wells, Maxisorp, Nunc) were coated overnight at +4° C. with 100 ng per well of human AMHR-II-ECD-Fc, rat AMHR-II-ECD-Fc or human ALK3-ECD-Fc (R&D Systems).
(§2) Coated plates were blocked with PBS-BSA 2% for 1 hour at 37° C. and washed three times with PBS-Tween20 0.05%. The anti-AMHR-II 4A3 antibody was serially diluted in PBST-BSA1% and incubated for 1 hour at 37° C. The bound anti-AMHR-II 4A3 was detected by adding HRP-conjugated F(ab′)2 goat anti-human F(ab′)2 fragment specific (Interchim) diluted at 1:10000 and incubated for one hour at 37° C. Revelation was done with TMB (Sigma) and the reaction was stopped by adding H₂SO₄ 1N (v:v). Absorbances were measured at 450 nm and binding data curves were analysed using GraphPad Prism 8 software.
(In general: An ELISA detects its analyte on a solid surface through an enzyme-linked reagent.)

The next assay deals with T2, human ALK3-ECD-Fc (human, UniProt P36894 24-152).
T2 construct: extracellular domain; Bought reagent (R&D Systems), used as negative control; also called human ALK3 receptor; negative control; not shown: Fc part of the bought fusion protein (R&D Systems)
T2 sequence (P36894 24-152): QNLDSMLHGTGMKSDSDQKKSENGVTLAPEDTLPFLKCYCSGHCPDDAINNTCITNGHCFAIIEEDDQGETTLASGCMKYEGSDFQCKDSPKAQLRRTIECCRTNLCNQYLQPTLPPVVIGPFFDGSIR
The assay is described as above. The procedure: as §1, §2

The target of another assay is T3, human AMHR-II-ECD-Fc (human, UniProt Q16671 18-149).
T3 construct: Bought reagent (R&D Systems); Only its extracellular domain stood in the assay; also called extracellular domain of human AMHR-II receptor; not shown: Fc part of the bought fusion protein (R&D Systems)
Briefly: ELISA, coated human AMHR-II-ECD-Fc, detection with HRP anti-human F(ab')2. On the procedure:
as §1, §2

In assay [1] the target is T4, human AMHR-II receptor expressed at the surface of the COV434-AMHR-II transfected cell line (human, UniProt Q16671 18-573).
T4 sequence: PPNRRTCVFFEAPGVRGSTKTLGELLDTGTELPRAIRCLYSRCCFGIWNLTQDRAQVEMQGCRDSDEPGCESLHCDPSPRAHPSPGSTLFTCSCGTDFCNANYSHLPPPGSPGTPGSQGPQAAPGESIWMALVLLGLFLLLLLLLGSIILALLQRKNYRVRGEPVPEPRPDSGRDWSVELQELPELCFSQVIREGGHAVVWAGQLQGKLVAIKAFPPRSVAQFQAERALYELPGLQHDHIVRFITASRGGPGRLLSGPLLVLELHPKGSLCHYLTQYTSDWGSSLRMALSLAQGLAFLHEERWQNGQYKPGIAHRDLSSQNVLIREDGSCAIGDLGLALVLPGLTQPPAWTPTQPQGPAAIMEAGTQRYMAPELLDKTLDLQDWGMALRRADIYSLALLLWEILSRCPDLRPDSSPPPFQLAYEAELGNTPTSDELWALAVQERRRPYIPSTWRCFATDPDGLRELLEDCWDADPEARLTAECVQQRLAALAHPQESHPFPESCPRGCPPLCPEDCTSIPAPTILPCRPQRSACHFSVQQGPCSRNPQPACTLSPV
Put plainly: flow cytometry on COV434 AMHR-II transfected cells, 67 nM to 0.2 pM, one-site specific binding fit. The procedure:
For Fluorescent-activated cell sorting (FACS) analysis, 3×10⁵ cells were incubated for 1 hour at 4° C. with 10 μg/ml of 4A3 antibody (FIG. 2A) or with a range of 4A3 concentrations (from 67 nM to 0.2 pM, FIG. 2B). After washes, Phycoerythrin-conjugated anti-human IgG antibody (1:200, Interchim) was added for 1 hour at 4° C. FACS analysis of the resuspended cells was done on a BD Accuri™ C6 flow cytometer (BD Bioscience). Binding affinity were determined using GraphPad Prism 8 with “one-site specific binding” fit equation.
A general note: A flow cytometer gives signals particle by particle.

B1: anti-AMHR-II 4A3 antibody (antibody, human IgG1, lambda, V domains shown)
VH: EVQLVESGGSLVKPGGSLRLSCAASGFTFSNNAMNWVRQAPGKGLEWISYISGSSRYISYADFVKGRFTISRDNAKNSLYLQMNSLRAEDTAVYYCVRSSDDYFGGGMDVWGRGTLVTVSS
VL: QSVLTQPASVSGSPGQSITISCAGTSSDVGGDNDVSWYQQHPGKAPKLMIYYDSYRPSGVSNRFSGSKSGNTASLTISGLQAEDEADYYCSSSTYYSTRVFGGGTKLTVLG
notes: The tie is therefore indirect; 4A3 was detected with anti-human F(ab')2 and anti-human IgG secondary reagents; also called antibody 4A3; 4A3 antagonist antibody
For the molecule B1, the binding result with rat AMHR-II-ECD-Fc and with human ALK3-ECD-Fc was “no binding” in each case. In addition, in the assay with human AMHR-II-ECD-Fc, the EC50 is 6 nM. Besides, the Kd in assay [1] was found to be 2.1 nM.

Usually EC50 stands for the concentration giving half of the maximal effect. A higher EC50 goes with lower potency in that assay. What is called Kd is the equilibrium constant for the complex coming apart.
